Results from patent US20240182563A1 (GENOME, published 2024).

How the values were obtained:
mouse CNTN4-10xHis = target: T1, mouse CNTN4-10xHis (mouse, UniProt Q69Z26 19-1000); test: ELISA, plate coated with CNTN4-10xHis, anti-human Fc-HRP
T1 sequence: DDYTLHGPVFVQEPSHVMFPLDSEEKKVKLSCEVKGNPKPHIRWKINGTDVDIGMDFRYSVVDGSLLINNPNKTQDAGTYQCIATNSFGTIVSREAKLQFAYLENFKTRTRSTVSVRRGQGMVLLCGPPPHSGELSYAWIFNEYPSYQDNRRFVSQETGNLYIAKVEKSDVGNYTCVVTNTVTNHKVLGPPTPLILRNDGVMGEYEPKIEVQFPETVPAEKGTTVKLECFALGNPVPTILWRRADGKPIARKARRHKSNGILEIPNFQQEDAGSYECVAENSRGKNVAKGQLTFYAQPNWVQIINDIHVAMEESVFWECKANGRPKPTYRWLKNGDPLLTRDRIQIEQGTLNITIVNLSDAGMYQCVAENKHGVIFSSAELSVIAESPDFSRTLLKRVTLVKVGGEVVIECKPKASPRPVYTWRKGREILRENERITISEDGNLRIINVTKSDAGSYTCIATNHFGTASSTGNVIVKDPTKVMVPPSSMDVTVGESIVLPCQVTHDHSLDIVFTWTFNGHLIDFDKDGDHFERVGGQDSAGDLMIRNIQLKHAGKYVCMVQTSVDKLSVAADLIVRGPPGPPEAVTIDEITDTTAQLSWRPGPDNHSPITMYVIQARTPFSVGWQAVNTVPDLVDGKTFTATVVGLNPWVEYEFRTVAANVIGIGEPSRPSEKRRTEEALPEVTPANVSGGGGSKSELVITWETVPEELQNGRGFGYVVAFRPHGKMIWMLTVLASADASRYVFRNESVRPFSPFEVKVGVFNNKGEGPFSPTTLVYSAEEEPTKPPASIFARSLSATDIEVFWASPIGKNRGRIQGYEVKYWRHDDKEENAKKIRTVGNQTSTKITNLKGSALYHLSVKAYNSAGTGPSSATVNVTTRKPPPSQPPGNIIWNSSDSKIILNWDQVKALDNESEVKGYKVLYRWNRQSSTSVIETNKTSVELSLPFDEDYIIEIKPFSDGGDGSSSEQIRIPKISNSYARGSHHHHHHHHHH
Method: The LAH2, L1H2, and L2H2 antibodies prepared in Example 3.1 were subjected to an ELISA test together with A-01. An ELISA plate was coated with 200 ng of antigens (human CNTN4-10xHis or mouse CNTN4-10xHis). For antibody binding, antibodies were serially diluted from a maximum of 1 μM to 0.0001 nM, thereby binding to the antigen. Anti-human Fc-HRP was used as a secondary antibody for antibody detection. Color was developed using ABTS, which is a color developing reagent, and the absorbance at 405 nm was measured.

Human CNTN-4 protein = target: T2, Human CNTN-4 protein (human, UniProt Q8IWV2 19-1000, limits assumed); test: SPR, antibody captured by anti-human IgG Fc on CM5 chip, CNTN4 as analyte
T2 construct: soluble antigen run over the captured antibody; also called human CNTN4 (SPR analyte)
T2 sequence (looked up): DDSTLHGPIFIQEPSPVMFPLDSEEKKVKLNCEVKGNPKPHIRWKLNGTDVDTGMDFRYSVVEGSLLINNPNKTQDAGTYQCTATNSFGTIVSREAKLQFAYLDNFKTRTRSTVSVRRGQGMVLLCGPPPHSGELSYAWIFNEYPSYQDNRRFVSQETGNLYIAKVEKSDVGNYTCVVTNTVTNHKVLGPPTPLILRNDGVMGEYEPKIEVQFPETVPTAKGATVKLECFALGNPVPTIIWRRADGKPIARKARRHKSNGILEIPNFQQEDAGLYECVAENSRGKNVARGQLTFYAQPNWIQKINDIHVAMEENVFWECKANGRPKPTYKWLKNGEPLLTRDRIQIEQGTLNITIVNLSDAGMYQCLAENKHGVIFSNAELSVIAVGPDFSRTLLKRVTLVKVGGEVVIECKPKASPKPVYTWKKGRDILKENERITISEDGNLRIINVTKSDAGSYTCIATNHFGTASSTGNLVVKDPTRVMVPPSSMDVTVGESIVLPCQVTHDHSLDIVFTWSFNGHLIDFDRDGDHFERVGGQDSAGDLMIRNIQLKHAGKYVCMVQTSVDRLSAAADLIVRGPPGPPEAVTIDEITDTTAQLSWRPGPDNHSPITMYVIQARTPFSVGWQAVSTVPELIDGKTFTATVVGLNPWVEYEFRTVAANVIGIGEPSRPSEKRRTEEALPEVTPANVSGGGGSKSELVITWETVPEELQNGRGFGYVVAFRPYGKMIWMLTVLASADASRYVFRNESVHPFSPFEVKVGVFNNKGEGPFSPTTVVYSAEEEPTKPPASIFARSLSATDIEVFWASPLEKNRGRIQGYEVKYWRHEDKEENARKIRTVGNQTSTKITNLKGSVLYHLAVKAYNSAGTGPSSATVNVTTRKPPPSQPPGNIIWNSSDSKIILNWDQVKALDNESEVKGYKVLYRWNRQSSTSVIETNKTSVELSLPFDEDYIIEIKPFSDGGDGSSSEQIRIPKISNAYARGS
Method: Specifically, in order to bind anti-human IgG Fc (capture antibody) using amine coupling, CM5 chip was mounted, running buffer was allowed to flow, the chip was activated, and then capture antibody was attached thereto. Dextrin to which capture antibody was not attached was deactivated using ethanolamine, and then regeneration was performed using 3M magnesium chloride to clear analyte except capture antibody. The A-01 prepared at a concentration of 0.05 μg/mL was allowed to flow for 30 seconds at a rate of 10 μL/min for binding. Thereafter, human CNTN4 (400 nM to 0.78 nM) prepared by sequential dilution as an antigen was allowed to flow at a rate of 30 μL/min for 3 minutes to be bound, and dissociation was performed for 5 minutes. Then, in order to clear all analytes attached to the capture antibody, a regeneration solution (3M magnesium chloride) was allowed to flow at a rate of 20 μL/min for 30 seconds, and regeneration was performed. For each concentration of antigen, binding of A-01, binding of antigen, dissociation, and regeneration were repeated in order.

B1: anti-CNTN4 129 chimeric IgG4-S228P (antibody, V domains shown)
VH: AVTLDESEGGLQTPGGALSLVCKASGFTFSSFNMFWVRQAPGKGLEYVAEISGGGGSTWYAPAVKGRATISRDNGQSTVRLQLNNLRAEDTGTYYCAKSADTWSYGAATIDAWGHGTEVIVSS
VL: ALTQPSSVSANLGETVKITCSGSSGSYGWYQQKSPGSAPVTLIYDNTNRPSDIPSRFSGSGSGSTGTLTITGVRAEDEAVYYCGGYDGSTDVFGAGTTLTVL
notes: chicken-human chimeric IgG4-S228P made from S129, kappa light chain constant region (Kappa select); also called A-01; LAHA
EC50 (mouse CNTN4-10xHis): 0.011 nM
Kd (Human CNTN-4 protein): 33.6 nM
